Assay results published in PMC9606039, “Molecular analysis of a public cross-neutralizing antibody response to SARS-CoV-2” (Cell Reports, 2022).

Target: T1, receptor-binding domain (RBD) (residues 319-541) of the SARS-CoV-2 spike (S) protein (SARS-CoV-2, ancestral Wuhan-Hu-1 …, UniProt P0DTC2)
T1 construct: also called SARS-CoV-2 RBD; wild-type RBD
Test: BLI
Settings: both partners purified

B1: 2-7 D54N Fab (Fab, V domains shown)
VH: QITLKESGPTLVKPTQTLTLTCTFSGFSLSTSGVGVGWIRQPPGKALEWLALIYWNDDKRYSPSLKSRLTITKDTSKNQVVLTMTNMDPVDTATYYCAHHKIERIFDYWGQGTLVTVSS
VL: QSALAQPASVSGSPGQSITISCTGTSSDVGAYNYVSWYQQHPGKAPKLMIYDVSKRPSGVSNRFSGSKSGNTASLTISGLQAEDEADYYCSSYTTSSTVFGGGTKLTVL
  fold weakening of KD against the wild-type Fab: ≥ 100 fold
